Data as given in paper PMC6405316 (Nature, 2019).
Blank lines part the entries; values can stand above or below the molecule they belong to.

Key:
[1] = molecular target: KCTD12 H1 domain (residues 200–325) (human) (UniProt Q96CX2); assay: SEC
[2] = molecular target: His6-SMT3-tagged KCTD16 BTB domain (residues 23–124) (human, UniProt Q68DU8 23-124); assay: pull-down
[3] = molecular target: KCTD16 BTB domain wild-type (residues 23–124), SMT3 tag cleaved with ULP1 (human, UniProt Q68DU8 23-124); assay: pull-down
[4] = molecular target: KCTD12 32–325, His6-GST tag cleaved by 3C protease (human, UniProt Q96CX2 32-325); assay: SEC
[5] = molecular target: KCTD16 21–279, His6-GST tag cleaved by 3C protease (human, UniProt Q68DU8 21-279); assay: SEC
[6] = molecular target: His6-GST-tagged KCTD12 32–325 (human, UniProt Q96CX2 32-325); assay: pull-down
His6-GST-tagged KCTD12 32–325, sequence (Q96CX2 32-325): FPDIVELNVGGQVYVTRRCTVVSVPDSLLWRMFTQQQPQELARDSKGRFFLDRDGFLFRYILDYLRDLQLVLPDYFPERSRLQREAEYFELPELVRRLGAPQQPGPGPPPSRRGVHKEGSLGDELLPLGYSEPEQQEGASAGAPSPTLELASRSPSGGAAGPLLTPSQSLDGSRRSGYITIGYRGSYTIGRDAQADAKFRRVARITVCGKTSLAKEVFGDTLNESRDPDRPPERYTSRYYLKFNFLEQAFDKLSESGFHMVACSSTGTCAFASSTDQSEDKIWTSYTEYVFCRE

KCTD12 H1 domain (residues 200–325) (human), sequence (Q96CX2 200-325): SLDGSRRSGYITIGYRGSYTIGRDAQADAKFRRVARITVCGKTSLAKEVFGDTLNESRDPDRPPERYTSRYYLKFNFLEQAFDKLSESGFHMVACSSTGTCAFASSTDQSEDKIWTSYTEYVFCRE
KCTD12 32–325, His6-GST tag cleaved by 3C protease, sequence (Q96CX2 32-325): as the sequence (Q96CX2 32-325) above
His6-SMT3-tagged KCTD16 BTB domain (residues 23–124), sequence (Q68DU8 23-124): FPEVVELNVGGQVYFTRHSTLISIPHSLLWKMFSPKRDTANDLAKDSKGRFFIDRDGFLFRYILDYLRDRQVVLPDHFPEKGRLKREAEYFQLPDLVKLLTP
KCTD16 BTB domain wild-type (residues 23–124), SMT3 tag cleaved with ULP1, sequence (Q68DU8 23-124): as above
KCTD16 21–279, His6-GST tag cleaved by 3C protease, sequence (Q68DU8 21-279): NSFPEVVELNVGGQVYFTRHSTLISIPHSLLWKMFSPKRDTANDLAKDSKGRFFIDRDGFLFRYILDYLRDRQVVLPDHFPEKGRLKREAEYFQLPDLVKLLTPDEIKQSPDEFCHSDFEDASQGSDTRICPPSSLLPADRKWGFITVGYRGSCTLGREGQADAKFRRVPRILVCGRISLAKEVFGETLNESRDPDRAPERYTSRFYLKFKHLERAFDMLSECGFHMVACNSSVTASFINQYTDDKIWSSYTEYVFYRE

Molecule: KDPIEDINSPEHIQRRLSLQLPILHHAYLPSIGGVDAS [His6-GST-tagged GABAB2 C-terminal fragment (residues 876–913)]
binding result [2]: binds | binding result [3]: binds

Molecule: KDPIEDINSPEHIQRRLSLQLPILHHAYLPSIGGVDAS [GABAB2 876–913, His6-SUMO tag cleaved by 3C protease]
binding result [4]: binds | binding result [5]: binds

Second part, the molecule after the results:

stoichiometry N (Gβγ per KCTD12H1 chain (5:5)) [1]: 1
Molecule: Human Gβ1γ2 heterodimer (His6-Gβ1, Gγ2 C68S) (from UniProt P62873;P59768) (complex)

binding result [6]: binds
Molecule: KDPIEDINSPEHIQRRLSLQLPILHHAYLPSIGGVDAS [His6-SUMO-tagged GABAB2 876–913]
